Columns and labels:
recombinant GFP–C-Myc = recombinant GFP–C-Myc (UniProt P01106 1-454); test: MST
recombinant GFP–N-Myc = target: T1, recombinant GFP–N-Myc (UniProt P04198 1-464); test: MST
T1 chain: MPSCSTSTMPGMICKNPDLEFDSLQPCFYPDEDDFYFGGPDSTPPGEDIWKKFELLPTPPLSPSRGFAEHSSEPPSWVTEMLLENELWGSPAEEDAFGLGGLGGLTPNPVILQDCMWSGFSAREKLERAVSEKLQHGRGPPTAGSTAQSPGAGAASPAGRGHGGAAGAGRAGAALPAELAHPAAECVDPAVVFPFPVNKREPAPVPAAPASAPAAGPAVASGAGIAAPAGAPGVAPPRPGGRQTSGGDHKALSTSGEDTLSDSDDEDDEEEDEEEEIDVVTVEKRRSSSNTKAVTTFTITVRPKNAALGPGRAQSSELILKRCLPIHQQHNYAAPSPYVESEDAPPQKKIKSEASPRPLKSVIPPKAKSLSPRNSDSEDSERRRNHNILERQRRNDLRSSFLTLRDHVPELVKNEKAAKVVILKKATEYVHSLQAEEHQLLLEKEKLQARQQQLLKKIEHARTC

recombinant GFP–C-Myc, sequence (P01106 whole entry): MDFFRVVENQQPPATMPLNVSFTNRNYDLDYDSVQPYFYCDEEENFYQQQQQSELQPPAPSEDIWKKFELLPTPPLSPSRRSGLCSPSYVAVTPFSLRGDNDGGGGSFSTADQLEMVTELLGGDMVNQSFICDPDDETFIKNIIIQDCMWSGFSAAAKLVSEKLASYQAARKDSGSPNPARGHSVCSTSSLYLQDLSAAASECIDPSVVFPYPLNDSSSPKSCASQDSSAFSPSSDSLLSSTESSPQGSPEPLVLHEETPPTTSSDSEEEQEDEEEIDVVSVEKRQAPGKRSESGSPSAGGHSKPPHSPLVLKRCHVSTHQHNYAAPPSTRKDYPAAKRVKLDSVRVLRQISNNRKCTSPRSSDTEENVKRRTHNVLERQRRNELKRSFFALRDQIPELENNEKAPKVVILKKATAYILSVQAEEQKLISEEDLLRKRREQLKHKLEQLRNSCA

EC50 (recombinant GFP–C-Myc): 2.54 nM | EC50 (recombinant GFP–N-Myc): 0.0983 nM
B1: KLHL37-His recombinant protein (natural protein)
chain: MSVSVHENRKSRASSGSINIYLFHKSSYADSVLTHLNLLRQQRLFTDVLLHAGNRTFPCHRAVLAACSRYFEAMFSGGLKESQDSEVNFDNSIHPEVLELLLDYAYSSRVIINEENAESLLEAGDMLEFQDIRDACAEFLEKNLHPTNCLGMLLLSDAHQCTKLYELSWRMCLSNFQTIRKNEDFLQLPQDMVVQLLSSEELETEDERLVYESAINWISYDLKKRYCYLPELLQTVRLALLPAIYLMENVAMEELITKQRKSKEIVEEAIRCKLKILQNDGVVTSLCARPRKTGHALFLLGGQTFMCDKLYLVDQKAKEIIPKADIPSPRKEFSACAIGCKVYITGGRGSENGVSKDVWVYDTLHEEWSKAAPMLVARFGHGSAELKHCLYVVGGHTAATGCLPASPSVSLKQVEHYDPTINKWTMVAPLREGVSNAAVVSAKLKLFAFGGTSVSHDKLPKVQCYDQCENRWTVPATCPQPWRYTAAAVLGNQIFIMGGDTEFSACSAYKFNSETYQWTKVGDVTAKRMSCHAVASGNKLYVVGGYFGIQRCKTLDCYDPTLDVWNSITTVPYSLIPTAFVSTWKHLPS

— PMC12259267 (2025)
